The labels stand for the following.
T1: mouse CD93 on transfected HEK293T cells (mouse, UniProt O89103 23-644)
T1 construct: whole, on cells; also called mCD93
T1 sequence (looked up): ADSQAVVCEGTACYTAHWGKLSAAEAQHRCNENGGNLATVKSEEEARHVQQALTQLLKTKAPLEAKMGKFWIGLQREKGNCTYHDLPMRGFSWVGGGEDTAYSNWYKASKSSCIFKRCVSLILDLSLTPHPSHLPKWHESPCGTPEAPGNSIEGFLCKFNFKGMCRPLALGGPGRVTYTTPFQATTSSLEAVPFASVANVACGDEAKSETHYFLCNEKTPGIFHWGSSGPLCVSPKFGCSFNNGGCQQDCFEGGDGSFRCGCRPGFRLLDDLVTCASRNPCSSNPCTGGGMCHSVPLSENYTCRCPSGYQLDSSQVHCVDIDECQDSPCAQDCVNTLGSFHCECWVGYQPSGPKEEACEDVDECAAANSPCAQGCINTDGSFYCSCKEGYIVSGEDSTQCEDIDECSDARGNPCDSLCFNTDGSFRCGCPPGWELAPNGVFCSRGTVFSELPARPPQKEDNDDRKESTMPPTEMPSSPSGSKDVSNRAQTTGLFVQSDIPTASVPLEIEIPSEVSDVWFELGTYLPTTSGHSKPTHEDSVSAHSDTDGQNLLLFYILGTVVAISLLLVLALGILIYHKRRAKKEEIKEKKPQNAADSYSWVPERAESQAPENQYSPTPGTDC

T2: human CD93 on cells (CD93-transfected HEK293T cells; endogenous on HUVEC cells) (human, UniProt Q9NPY3 22-652)
T2 construct: in the co-immunoprecipitation it comes from HUVEC lysate; also called CD93 transfectant; CD93+ 293 cells
T2 sequence: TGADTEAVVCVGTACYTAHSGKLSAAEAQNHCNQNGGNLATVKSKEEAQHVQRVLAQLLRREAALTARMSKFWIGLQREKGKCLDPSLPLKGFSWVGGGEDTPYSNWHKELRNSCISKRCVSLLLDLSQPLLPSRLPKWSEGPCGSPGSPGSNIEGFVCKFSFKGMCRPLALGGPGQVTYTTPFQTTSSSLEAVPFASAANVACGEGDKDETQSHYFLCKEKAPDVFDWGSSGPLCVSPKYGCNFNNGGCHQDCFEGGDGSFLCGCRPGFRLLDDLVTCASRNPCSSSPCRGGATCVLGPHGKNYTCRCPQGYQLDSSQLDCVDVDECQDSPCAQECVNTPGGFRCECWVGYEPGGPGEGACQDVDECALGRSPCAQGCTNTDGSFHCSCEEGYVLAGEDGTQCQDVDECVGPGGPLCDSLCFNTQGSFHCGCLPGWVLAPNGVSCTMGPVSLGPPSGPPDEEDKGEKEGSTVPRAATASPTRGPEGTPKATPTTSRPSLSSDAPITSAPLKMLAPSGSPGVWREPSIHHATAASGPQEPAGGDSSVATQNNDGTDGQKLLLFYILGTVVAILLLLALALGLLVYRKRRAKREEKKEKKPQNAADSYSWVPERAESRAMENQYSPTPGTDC

B1: Mouse IGFBP7 (Fc-tag), Sino Biological (Fc fusion, UniProt Q61581 26-281, looked up)
chain: SSSDACGPCVPASCPALPRLGCPLGETRDACGCCPVCARGEGEPCGGGAAGRGHCAPGMECVKSRKRRKGKAGAAAGGPATLAVCVCKSRYPVCGSNGITYPSGCQLRAASLRAESRGEKAITQVSKGTCEQGPSIVTPPKDIWNVTGAKVFLSCEVIGIPTPVLIWNKVKRDHSGVQRTELLPGDRENLAIQTRGGPEKHEVTGWVLVSPLSKEDAGEYECHASNSQGQASAAAKITVVDALHEIPLKKGEGAQL
notes: also called mouse IGFBP7-Ig; not shown: Fc tag
B2: Human IGFBP7 (Fc-tag), Sino Biological (Fc fusion)
chain: SSSDTCGPCEPASCPPLPPLGCLLGETRDACGCCPMCARGEGEPCGGGGAGRGYCAPGMECVKSRKRRKGKAGAAAGGPGVSGVCVCKSRYPVCGSDGTTYPSGCQLRAASQRAESRGEKAITQVSKGTCEQGPSIVTPPKDIWNVTGAQVYLSCEVIGIPTPVLIWNKVKRGHYGVQRTELLPGDRDNLAIQTRGGPEKHEVTGWVLVSPLSKEDAGEYECHASNSQGQASASAKITVVDALHEIPVKKGEGAEL
notes: Bought; also called IGFBP7-Ig; recombinant IGFBP7 protein; not shown: Fc tag of the bought fusion protein
B3: IGFBP7 protein (R&D Systems), labelled with a His-Tag Labeling Kit for MST (ligand)
chain: B2 chain
modifications: RED-tris-NTA fluorescent dye bound to the His tag
notes: Bought; also called human IGFBP7; not shown: His tag implied by the His-Tag Labeling Kit
B4: recombinant human CD93 protein (R&D Systems) (receptor)
chain: ADTEAVVCVGTACYTAHSGKLSAAEAQNHCNQNGGNLATVKSKEEAQHVQRVLAQLLRREAALTARMSKFWIGLQREKGKCLDPSLPLKGFSWVGGGEDTPYSNWHKELRNSCISKRCVSLLLDLSQPLLPSRLPKWSEGPCGSPGSPGSNIEGFVCKFSFKGMCRPLALGGPGQVTYTTPFQTTSSSLEAVPFASAANVACGEGDKDETQSHYFLCKEKAPDVFDWGSSGPLCVSPKYGCNFNNGGCHQDCFEGGDGSFLCGCRPGFRLLDDLVTCASRNPCSSSPCRGGATCVLGPHGKNYTCRCPQGYQLDSSQLDCVDVDECQDSPCAQECVNTPGGFRCECWVGYEPGGPGEGACQDVDECALGRSPCAQGCTNTDGSFHCSCEEGYVLAGEDGTQCQDVDECVGPGGPLCDSLCFNTQGSFHCGCLPGWVLAPNGVSCTMGPVSLGPPSGPPDEEDKGEKEGSTVPRAATASPTRGPEGTPKATPTTSRPSLSSDAPITSAPLKMLAPSGSPGVWREPSIHHATAASGPQEPAGGDSSVATQNNDGTDGQK
notes: Bought soluble protein

Assay [1] addresses T1, mouse CD93 on transfected HEK293T cells. In words: flow cytometry, mouse IGFBP7-Ig on mouse CD93-transduced or control HEK293T cells. Background: A flow cytometer gives signals particle by particle.
For assay [2], the target named is T2, human CD93 on cells (CD93-transfected …). In words: flow cytometry, IGFBP7-Ig on CD93-transduced or control HEK293T cells.
In assay [3] the target is B4. Briefly: microscale thermophoresis: 10 nM labelled IGFBP7, CD93 titrated from 5.9 uM to 180 pM (FIG. 4E). On the technique in general: Microscale thermophoresis detects binding through changes in fluorescence in a small temperature gradient.
For assay [4], the target named is B3. In words: microscale thermophoresis (MST), CD93 titrated against 10 nM labelled IGFBP7.

In the case of B1, the binding result in assay [1] was “binds”.
In the case of B2, the binding result in assay [2] is “binds”.
Turning to B3, the Kd (commonly the free concentration of one partner at which half of the binding sites on the other are occupied at equilibrium, for simple one-to-one binding) in assay [3] amounted to 53.1 nM.
Take B4: the EC50 (read off the curve) (in general, the concentration at which the effect is half-maximal) in assay [4] is approximately 50 nM.

For the origin of these results see patent US20220235136A1 (YALE UNIVERSITY, published 2022).
